{"source": "patent US12454527B2", "about": "“Conjugate monomethyl auristatin E to obtain a composition for treatment of prostate cancer” (priority 2019, dated 2025)", "key": {"[1]": {"experiment": "Assessment of the tolerability in the 22Rv1 xenograft study (body weight, survival, general health)", "format": "in vivo, mice", "conditions": "0.3 mg/kg; for Body weight of mice (M ± m): in g (unit assumed)"}, "[2]": {"test_system": "Melanoma B16", "experiment": "Antineoplastic activity on melanoma B16 model (tumor growth inhibition)", "format": "in vivo", "conditions": "for Tumor volume, Mean / TGI %: B16, 1.0 mg/kg; for TGI %: vs TGC; for Tumor volume (individual tumors): s.c. B16 melanoma, 1.0 mg/kg i.p. x3, 1 mg/kg", "procedure": "Melanoma B16-30 days after the first product administration (the product administration was started 48 hours after revaccination) and it was administered 3 times intraperitoneally in 5 days,\n• 1. Group 1—diluent (placebo) • 2. Group 2—intraperitoneal Conjugate (I) administration in a dose of 1 mg/kg 3 times:\nExperimental animals of control group (TGC) were administered with the diluent (DMSO+Haemodes) of similar Volume (placebo product). The measurement of tumor node was performed three times (on. Day 1, 4 and 8 after treatment completion), The antineoplastic activity was determined according to the standard parameters: tumor growth inhibition TGI (>50%). The survival observation was continued up to 30 days (Table 3)."}, "[3]": {"experiment": "Pharmacokinetics in plasma of rats after a single injection", "format": "in vivo", "conditions": "male, white outbred, rat, plasma; for level at 0.08 h / level at 0.25 h / level at 0.5 h / level at 1 h / level at 1.5 h / level at 2 h / level at 3 h / level at 4 h / level at 6 h: rats N=6; for level at 0.5 h: 0.50 hour; for level at 1.5 h: 1.50 hour", "procedure": "The pharmacokinetics study for the Conjugate (I) product in plasma of rabbits and rats after a single injection.\nThe leporids and rodents are the standard targets for preclinical studies of potential drug products as well as determining the pharmacokinetic parameters. The rabbits and rats are recommended as test systems to study pharmacokinetic properties of pharmaceutical products by the regulatory documents (FIG. 7, FIG. 8).\nThis study was performed on healthy awake white outbred mature male rats aged about 3 months with body weight of 190-210 g. […] The pharmacokinetic data, determined from this number of test animals, are sufficient to obtain the primary quantitative characteristics of test product distribution and elimination and the calculation of descriptive statistics parameters.\n• 1. Conjugate (1) • 2. Solubilizer Pluronic F127—in the amount, five-fold greater than the conjugate amount by weight. • 3, Diluent—Haemodes infusion solution. • Dimethyl sulfoxide—in the amount of 5% of the prepared volume. • Rabbit experiment (see Tables 5, 6), • Rat experiment (see Tables 7, 8)."}, "[4]": {"conditions": "read-out: Concentration in blood plasma, Geometr. mean"}, "[5]": {"conditions": "read-out: Concentration in blood plasma, Mean value"}, "[6]": {"conditions": "read-out: Concentration in blood plasma, Median"}}, "note": "Where “and” joins values, the source holds several entries; their conditions need not be identical. Equal entries are not always repeated. Where two headings read alike, the source gives them in different places. Starred links: 1 amine or outer side, 2 acyl side, 3 side chain; linkers in the order of their positions; H or OH if unused. Non-standard residues stand in square brackets, D forms with d. Residues, ends and D or L forms follow the SMILES beside them. ξ: configuration not given here. *: point of attachment. GluureaLys(ε-3-ClBenzyl) = O=C(O)CC[C@H](NC(=O)N[C@@H](CCCCN(Cc1cccc(Cl)c1)*)C(=O)O)C(=O)O; Dolaproine = CO[C@@H]([C@@H]1CCCN1)[C@@H](C)C(=O)O; Dil = CC[C@H](C)[C@H](NC)[C@@H](CC(=O)O)OC; X1 = O=C(CCCc1cn(CCCN[*:1])nn1)[*:2]; PABC = O=C(OCc1ccc(N[*:1])cc1)[*:2]; X2 = C[C@@H](N*)[C@@H](O)c1ccccc1; Cit = NC(=O)NCCC[C@H](N)C(=O)O; Suc = O=C(CCC(=O)[*:2])[*:1]; NMeV = CN[C@H](C(=O)O)C(C)C; ξV = CC(C)C(N)C(=O)O; Ahx = NCCCCCC(=O)O"}
{"compound": "CC[C@H](C)[C@@H]([C@@H](CC(=O)N1CCC[C@H]1[C@H](OC)[C@@H](C)C(=O)N[C@H](C)[C@@H](O)c1ccccc1)OC)N(C)C(=O)[C@@H](NC(=O)[C@H](C(C)C)N(C)C(=O)OCc1ccc(NC(=O)[C@H](CCCNC(N)=O)NC(=O)C(NC(=O)CCCc2cn(CCCNC(=O)[C@H](Cc3ccc(O)cc3)NC(=O)[C@H](Cc3ccccc3)NC(=O)CCC(=O)NCCCCCC(=O)N(CCCC[C@H](NC(=O)N[C@@H](CCC(=O)O)C(=O)O)C(=O)O)Cc3cccc(Cl)c3)nn2)C(C)C)cc1)C(C)C", "note": "(stereo partly shown) [Conjugate (I)] ({GluureaLys(ε-3-ClBenzyl)-Ahx-Suc}-FY[X1][ξV][Cit][PABC][NMeV]V[Dil][Dolaproine]-X2)", "values": [{"measurement": "Body weight of mice (M ± m)", "setting": "[1]; day 0 after treatment initiated", "result": "22.2 ± 0.53"}, {"measurement": "Body weight of mice (M ± m)", "setting": "[1]; day 2", "result": "21.2 ± 0.36"}, {"measurement": "Body weight of mice (M ± m)", "setting": "[1]; day 4", "result": "18.0 ± 0.48"}, {"measurement": "Body weight of mice (M ± m)", "setting": "[1]; day 6", "result": "19.2 ± 0.35"}, {"measurement": "Body weight of mice (M ± m)", "setting": "[1]; day 8", "result": "19.4 ± 0.4"}, {"measurement": "Death cases", "setting": "[1]; mice", "result": "no death cases"}, {"measurement": "Survival", "setting": "[1]; mice, whole experiment", "result": 100, "unit": "%"}, {"measurement": "General health and mice behavior", "setting": "[1]; within and after intake", "result": "satisfactory without any pathologic changes and gastrointestinal and any other toxicity"}, {"measurement": "Tumor volume, Mean", "setting": "[2]; day 1", "result": 66, "unit": "mm^3"}, {"measurement": "TGI %", "setting": "[2]; day 1", "result": 75, "unit": "%"}, {"measurement": "Tumor volume, Mean", "setting": "[2]; day 4", "result": 433, "unit": "mm^3"}, {"measurement": "TGI %", "setting": "[2]; day 4", "result": 62, "unit": "%"}, {"measurement": "Tumor volume, Mean", "setting": "[2]; day 8", "result": 898, "unit": "mm^3"}, {"measurement": "TGI %", "setting": "[2]; day 8", "result": 61, "unit": "%"}, {"measurement": "Tumor volume (individual tumors)", "setting": "[2]; day 1 after treatment", "result": "135 mm^3 and 72 mm^3 and 64 mm^3 (2×) and 48 mm^3 and 90 mm^3 and 36 mm^3 and 16 mm^3"}, {"measurement": "Tumor volume (individual tumors)", "setting": "[2]; day 4", "result": "768 mm^3 and 364 mm^3 and 476 mm^3 and 220 mm^3 and 544 mm^3 and 525 mm^3 and 120 mm^3 and 448 mm^3"}, {"measurement": "Tumor volume (individual tumors)", "setting": "[2]; day 8", "result": "1,030 mm^3 and 855 mm^3 (2×) and 1,045 mm^3 and 675 mm^3 and 1,144 mm^3 and 972 mm^3 and 560 mm^3"}, {"measurement": "half-life", "setting": "[3]; intravenous, 1.5 mg/kg, rats, individual animals", "result": 4.11, "unit": "h"}, {"measurement": "MRT last", "setting": "[3]; intravenous, 1.5 mg/kg, rats, individual animals, read-out: MRT 0-t", "result": 3.98, "unit": "h"}, {"measurement": "level at 0.08 h", "setting": "[3]; [4]", "result": 19000, "unit": "ng/mL"}, {"measurement": "level at 0.08 h", "setting": "[3]; [5]", "result": 26100, "unit": "ng/mL"}, {"measurement": "level at 0.08 h", "setting": "[3]; [6]", "result": 19100, "unit": "ng/mL"}, {"measurement": "level at 0.25 h", "setting": "[3]; [4]", "result": 17000, "unit": "ng/mL"}, {"measurement": "level at 0.25 h", "setting": "[3]; [5]", "result": 19900, "unit": "ng/mL"}, {"measurement": "level at 0.25 h", "setting": "[3]; [6]", "result": 18000, "unit": "ng/mL"}, {"measurement": "level at 0.5 h", "setting": "[3]; [4]", "result": 16200, "unit": "ng/mL"}, {"measurement": "level at 0.5 h", "setting": "[3]; [5]", "result": 18000, "unit": "ng/mL"}, {"measurement": "level at 0.5 h", "setting": "[3]; [6]", "result": 14300, "unit": "ng/mL"}, {"measurement": "level at 1 h", "setting": "[3]; [4]", "result": 13400, "unit": "ng/mL"}, {"measurement": "level at 1 h", "setting": "[3]; [5]", "result": 15200, "unit": "ng/mL"}, {"measurement": "level at 1 h", "setting": "[3]; [6]", "result": 12500, "unit": "ng/mL"}, {"measurement": "level at 1.5 h", "setting": "[3]; [4]", "result": 10700, "unit": "ng/mL"}, {"measurement": "level at 1.5 h", "setting": "[3]; [5]", "result": 11600, "unit": "ng/mL"}, {"measurement": "level at 1.5 h", "setting": "[3]; [6]", "result": 10700, "unit": "ng/mL"}, {"measurement": "level at 2 h", "setting": "[3]; [4]", "result": 10900, "unit": "ng/mL"}, {"measurement": "level at 2 h", "setting": "[3]; [5]", "result": 11500, "unit": "ng/mL"}, {"measurement": "level at 2 h", "setting": "[3]; [6]", "result": 10500, "unit": "ng/mL"}, {"measurement": "level at 3 h", "setting": "[3]; [4]", "result": 7480, "unit": "ng/mL"}, {"measurement": "level at 3 h", "setting": "[3]; [5]", "result": 7680, "unit": "ng/mL"}, {"measurement": "level at 3 h", "setting": "[3]; [6]", "result": 7470, "unit": "ng/mL"}, {"measurement": "level at 4 h", "setting": "[3]; [4]", "result": 5730, "unit": "ng/mL"}, {"measurement": "level at 4 h", "setting": "[3]; [5]", "result": 5860, "unit": "ng/mL"}, {"measurement": "level at 4 h", "setting": "[3]; [6]", "result": 5840, "unit": "ng/mL"}, {"measurement": "level at 6 h", "setting": "[3]; [4]", "result": 4390, "unit": "ng/mL"}, {"measurement": "level at 6 h", "setting": "[3]; [5]", "result": 4500, "unit": "ng/mL"}, {"measurement": "level at 6 h", "setting": "[3]; [6]", "result": 4240, "unit": "ng/mL"}]}
